Laboratory results reported in US20080274096A1, “Fusion Proteins Having a Modulated Half-Life in Plasma” (ASTRAZENECA AB, priority 2005, published 2008).

Columns and labels:
amyloid β1-40 peptide = assay: Degradation of amyloid β1-40 peptide by soluble Neprilysin in a buffer system; type: biochemical; settings: Neprilysin 1.8 μg/ml; Amyloid β1-40 peptide (1 nM); 3 hours incubation at 37° C.
Description: Following incubation, 50 μl of antibodies solution containing anti-Aβ40 (final concentration 0.125 μg/ml; Biosource) and Biotinylated 6E10 (final concentration 0.125 μg/ml; Signet) antibodies was added to each well. Plate was incubated at RT for 3 h. Following incubation, 50 μl of detection mixture of Dynabeads M280 (Dynal Biotech ASA) and secondary antibody Ru-GαR (final concentration 0.132 μg/ml) was added to all wells. Plate was incubated on a shaker at RT for 1 h and results were recorded on IGEN/Bio […]8 analyser. Amyloid β1-40 peptide degradation by Neprilysin was calculated as a percentage of Amyloid β1-40 peptide left after incubation in the presence of Neprilysin compared to the amyloid β1-40 peptide concentration in the absence of Neprilysin.

[1] = tested on: amyloid β peptide1-42 (Aβ42); assay: Degradation of Aβ1-42 in guinea pig plasma by neprilysin; type: biochemical; settings: 5 μg/ml neprilysin, 0-360 minutes at 37° C.
Description: (§1) Degradation of amyloid β peptide1-40 (Aβ40) and amyloid β peptide1-42 (Aβ42) by neprilysin was investigated using heparinized plasma from male Dunkin Hartley guinea pigs, weighing 250-300 g (HBLidköping ka). Blood was withdrawn from anaesthetized guinea pigs by heart puncture. The blood were collected into prechilled heparin-plasma tubes and centrifuged for 10 min at 4° C. at 3000×g within 20 minutes of sampling. Plasma samples were transferred to pre-chilled polypropylene tubes and immediately frozen on dry ice and stored at −70° C. prior to use. The experiments were performed on a pool of plasma from 5-6 guinea pigs. […] A final concentration of 4.7 mM EDTA was added into the tubes before the amount of Aβ1-40 or Aβ1-42 was analyzed by using commercial ELISA kits obtained from Biosource (Aβ1-40) or Innogenetics (Aβ1-42).

[2] = tested on: fluorogenic peptide substrate V-Mca-Arg-Pro-Gly-Phe-Ser-Ala-Phe-Lys(Dnp)-OH; assay: Neprilysin enzyme activity FRET assay; type: biochemical; settings: purification with addition of 200 μM ZnCl2 versus without
Description: Neprilysin is affinity purified directly from the culture supernatants. Soluble Neprilysin is purified using biotinylated anti-neprilysin antibody (R&D Systems) bound to […] sepharose (GE Healthcare). 14 μg biotinylated anti-neprilysin antibody (R&D systems) was added to 140 μl streptavidin sepharose slurry (GE Healthcare) and incubated during gentle mixing for 2 hours, in room temperature. The sepharose was washed twice and resuspended in 140 μl PBS. The sepharose slurry with bound anti-neprilysin antibody, was added to 10 ml culture supernatant and the sample was incubated for 5 hours at 4° C. After incubation, the sepharose was washed once with PBS and resuspended in 1200 μl 50 mM Tris-HCl, pH 7.5, 150 mM NaCl. […] The sepharose was pelleted and the concentration of purified protein in the supernatant was measured by absorbance at 280 nm. […] The Neprilysin enzymatic activity is determined in a fluorescence resonance energy transfer (FRET) assay. […] Following addition of all components to wells, plate was immediately placed into a fluorescent plate reader (Ascent) and signal was recorded for every minute for 20 minutes at the excitation 340 nm and emission 405 nm. The activity of enzyme was evaluated by calculating the velocity of reaction-Slope coefficient=Σ ΔRFU/Δt. […]

amyloid β peptide = assay: Two-compartment membrane experiment, degradation of amyloid β peptide; type: biochemical; settings: degradation in one compartment connected through a membrane
Description: An experiment is performed to investigate the possibility to remove amyloid β peptide from one compartment by degradation in another compartment connected through a membrane. A similar experiment was conducted using an antibody as an amyloid β peptide agent. The experiment is described by DeMattos et al., (PNAS, 2001). By degrading the amyloid β peptide with neprilysin and/or NEP-Fc in one compartment the concentration of amyloid β peptide in the other compartment is decreased. Importantly, neprilysin or NEP-Fc cannot cross the membrane due to its high molecular weight (161.000 Da and 211.000 Da, respectively).

Ab1-42 = settings: purified Neprilysin; Howell et al., 1995; cited from earlier work
[3] = tested on: amyloid β peptide1-40 (Aβ40); assay: Degradation of Aβ1-40 in guinea pig plasma by neprilysin; type: biochemical
Description: as §1

B1: Neprilysin: Aβ-degrading Zn-metallopeptidase; soluble extracellular domain (SEQ ID NO 1-4), commercial (R&D Systems) or produced in-house (protein, UniProt P08473 52-750, looked up)
extracellular domain: YDDGICKSSDCIKSAARLIQNMDATTEPCTDFFKYACGGWLKRNVIPETSSRYGNFDILRDELEVVLKDVLQEPKTEDIVAVQKAKALYRSCINESAIDSRGGEPLLKLLPDIYGWPVATENWEQKYGASWTAEKAIAQLNSKYGKKVLINLFVGTDDKNSVNHVIHIDQPRLGLPSRDYYECTGIYKEACTAYVDFMISVARLIRQEERLPIDENQLALEMNKVMELEKEIANATAKPEDRNDPMLLYNKMTLAQIQNNFSLEINGKPFSWLNFTNEIMSTVNISITNEEDVVVYAPEYLTKLKPILTKYSARDLQNLMSWRFIMDLVSSLSRTYKESRNAFRKALYGTTSETATWRRCANYVNGNMENAVGRLYVEAAFAGESKHVVEDLIAQIREVFIQTLDDLTWMDAETKKRAEEKALAIKERIGYPDDIVSNDNKLNNEYLELNYKEDEYFENIIQNLKFSQSKQLKKLREKVDKDEWISGAAVVNAFYSSGRNQIVFPAGILQPPFFSAQQSNSLNYGGIGMVIGHEITHGFDDNGRNFNKDGDLVDWWTQQSASNFKEQSQCMVYQYGNFSWDLAGGQHLNGINTLGENIADNGGLGQAYRAYQNYIKKNGEEKLLPGLDLNHKQLFFLNFAQVWCGTYRPEYAVNSIKTDVHSPGNFRIIGTLQNSAEFSEAFHCRKNSYMNPEKKCRVW
modifications: extracellular domain
Amyloid β1-40 peptide
  Amyloid β1-40 peptide degraded: 88%
[1]
  Degradation of Aβ1-42 over time: time-dependent manner
[2]
  Activity of purified protein with versus without added zinc: no difference in activity
Amyloid β peptide
  Concentration of amyloid β peptide in the other compartment: decreased
Ab1-42
  Sites at which amyloid β peptide is cleaved in vitro: five sites
[3]; 0-20 μg/ml neprilysin, 210 minutes at 37° C.
  Degradation of Aβ1-40 versus dose: dose dependent manner
[3]; 5 μg/ml neprilysin, 0-360 minutes at 37° C.
  Degradation of Aβ1-40 over time: time-dependent manner
